This is an account of results in article PMC12732657.

One may read the Kd as the equilibrium constant for the complex coming apart. A low value points to tighter binding. For orientation: stoichiometry N means the number of molecules, sites or subunits per partner or assembly.

Test [1] deals with Bovine pancreatic β-trypsin (bovine).
The target is the same in test [2]. Description: ITC; CVTI (200 µM) injected in 2.02 µL steps into 170 µL cell with bovine trypsin (20 µM); 50 mM Tris pH 7.8, 150 mM NaCl; Nano ITC. For orientation: ITC needs no label: the signal is the heat of the interaction.

As for “Cleome viscosa trypsin inhibitor (natural protein)”, the Vmax of caseinolysis by trypsin (5 µM) in the presence of CVTI (15 µM); 20.23 µM/min without CVTI in test [1] stood at 16.7 µM/min. Moreover, in test [2], the Ka came out at 513000 M⁻¹, the Kd amounted to 1950 nM, the dH stood at 76.8 kcal/mol and the stoichiometry N is 1.1.
